Reference: US20120172293A1 (Takeda / Millennium, published 2012)
Starred links: 1 amine or outer side, 2 acyl side, 3 side chain; linkers in the order of their positions; H or OH if unused. Non-standard residues stand in square brackets, D forms with d. *: point of attachment. Asn(Me) = N-omega-methylasparagine, CNC(=O)C[C@H](N[*:1])C(=O)[*:2]; 4‑guanidinomethylbenzoyl = N=C(N)NCc1ccc(C(=O)*)cc1; Phe(4-NH2) = Nc1ccc(C[C@H](N)C(=O)O)cc1; Phe(4-F) = N[C@@H](Cc1ccc(F)cc1)C(=O)O; 1Nal = N[C@@H](Cc1cccc2ccccc12)C(=O)O; Cyclohexanecarbonyl = O=C(C1CCCCC1)*; Arg(Me) = CNC(=N)NCCC[C@H](N)C(=O)O; Ala(cPr) = N[C@@H](CC1CC1)C(=O)O; tBuAla = CC(C)(C)C[C@H](N)C(=O)O; 3Pal = N[C@@H](Cc1cccnc1)C(=O)O; 4Pal = N[C@@H](Cc1ccncc1)C(=O)O; Cha = N[C@@H](CC1CCCCC1)C(=O)O; Isobutyryl = CC(C)C(=O)*; Nle = CCCC[C@H](N)C(=O)O; Abu = CC[C@H](N)C(=O)O; Dap = NC[C@H](N)C(=O)O; Aib = CC(C)(N)C(=O)O; Bz = O=C(c1ccccc1)*

Assays:
[1] = molecular target: human Y2 receptor (human) (UniProt P49146); experiment: cell-based or functional assay
Chain of human Y2 receptor (human) (P49146 whole entry): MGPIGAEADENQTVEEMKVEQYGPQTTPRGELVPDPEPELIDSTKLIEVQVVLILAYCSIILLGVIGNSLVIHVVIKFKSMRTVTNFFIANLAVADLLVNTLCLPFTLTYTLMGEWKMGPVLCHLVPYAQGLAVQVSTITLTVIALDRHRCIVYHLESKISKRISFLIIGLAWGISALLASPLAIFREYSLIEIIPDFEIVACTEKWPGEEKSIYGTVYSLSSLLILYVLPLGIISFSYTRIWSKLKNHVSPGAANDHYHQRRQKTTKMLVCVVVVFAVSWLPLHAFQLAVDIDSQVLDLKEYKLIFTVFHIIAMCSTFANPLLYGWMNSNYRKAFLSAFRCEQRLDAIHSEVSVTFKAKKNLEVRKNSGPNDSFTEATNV

[2] = molecular target: human Y2 receptor (human) (UniProt P49146); experiment: RBA: [125I]-PYY displacement, hY2R/CHO membranes

GBA EC50 Ratio (vs PYY(3-36)), [35S]GTPγS [1] | IC50 Ratio (vs PYY(3-36)) [2] | Binder
28 | 37 | Bz-RH[Cha]INL[Dap]TRQR[Cha]-NH2 (SMILES CC[C@H](C)[C@H](NC(=O)[C@H](CC1CCCCC1)NC(=O)[C@H](Cc1c[nH]cn1)NC(=O)[C@H](CCCNC(=N)N)NC(=O)c1ccccc1)C(=O)N[C@@H](CC(N)=O)C(=O)N[C@@H](CC(C)C)C(=O)N[C@@H](CN)C(=O)N[C@H](C(=O)N[C@@H](CCCNC(=N)N)C(=O)N[C@@H](CCC(N)=O)C(=O)N[C@@H](CCCNC(=N)N)C(=O)N[C@@H](CC1CCCCC1)C(N)=O)[C@@H](C)O) [Benzoyl-[Cha27,36, Ile28, Dap31]-PYY(25-36)]
23 | 15 | Cyclohexanecarbonyl-RH[Cha][Ala(cPr)]NL[Aib]TRQR[Cha]-NH2 (SMILES CC(C)C[C@H](NC(=O)[C@H](CC(N)=O)NC(=O)[C@H](CC1CC1)NC(=O)[C@H](CC1CCCCC1)NC(=O)[C@H](Cc1c[nH]cn1)NC(=O)[C@H](CCCNC(=N)N)NC(=O)C1CCCCC1)C(=O)NC(C)(C)C(=O)N[C@H](C(=O)N[C@@H](CCCNC(=N)N)C(=O)N[C@@H](CCC(N)=O)C(=O)N[C@@H](CCCNC(=N)N)C(=O)N[C@@H](CC1CCCCC1)C(N)=O)[C@@H](C)O) [Cyclohexanecarbonyl-[Cha27,36, Ala(cPr)28, Aib31]-PYY(25-36)]
8.5 | 7.6 | Bz-RH[Cha]INL[4Pal]TRQR[Cha]-NH2 (SMILES CC[C@H](C)[C@H](NC(=O)[C@H](CC1CCCCC1)NC(=O)[C@H](Cc1c[nH]cn1)NC(=O)[C@H](CCCNC(=N)N)NC(=O)c1ccccc1)C(=O)N[C@@H](CC(N)=O)C(=O)N[C@@H](CC(C)C)C(=O)N[C@@H](Cc1ccncc1)C(=O)N[C@H](C(=O)N[C@@H](CCCNC(=N)N)C(=O)N[C@@H](CCC(N)=O)C(=O)N[C@@H](CCCNC(=N)N)C(=O)N[C@@H](CC1CCCCC1)C(N)=O)[C@@H](C)O) [Benzoyl-[Cha27,36, Ile28, Pya(4)31]-PYY(25-36)]
12 | 17 | Isobutyryl-R[Abu][Cha][Cha]N[Ala(cPr)][Aib]TRQR[Cha]-NH2 (SMILES CC[C@H](NC(=O)[C@H](CCCNC(=N)N)NC(=O)C(C)C)C(=O)N[C@@H](CC1CCCCC1)C(=O)N[C@@H](CC1CCCCC1)C(=O)N[C@@H](CC(N)=O)C(=O)N[C@@H](CC1CC1)C(=O)NC(C)(C)C(=O)N[C@H](C(=O)N[C@@H](CCCNC(=N)N)C(=O)N[C@@H](CCC(N)=O)C(=O)N[C@@H](CCCNC(=N)N)C(=O)N[C@@H](CC1CCCCC1)C(N)=O)[C@@H](C)O) [Isobutanoyl-[Abu26, Cha27,28,36, Ala(cPr)30, Aib31]-PYY(25-36)]
25 | 34 | Bz-RH[Cha][1Nal]NL[Aib]TRQR[Cha]-NH2 (SMILES CC(C)C[C@H](NC(=O)[C@H](CC(N)=O)NC(=O)[C@H](Cc1cccc2ccccc12)NC(=O)[C@H](CC1CCCCC1)NC(=O)[C@H](Cc1c[nH]cn1)NC(=O)[C@H](CCCNC(=N)N)NC(=O)c1ccccc1)C(=O)NC(C)(C)C(=O)N[C@H](C(=O)N[C@@H](CCCNC(=N)N)C(=O)N[C@@H](CCC(N)=O)C(=O)N[C@@H](CCCNC(=N)N)C(=O)N[C@@H](CC1CCCCC1)C(N)=O)[C@@H](C)O) [Benzoyl-[Cha27,36, Nal(1)28, Aib31]-PYY(25-36)]
6.6 | 12 | Bz-RH[Cha]IN[Phe(4-NH2)]ITRQR[Cha]-NH2 (SMILES CC[C@H](C)[C@H](NC(=O)[C@H](CC1CCCCC1)NC(=O)[C@H](Cc1c[nH]cn1)NC(=O)[C@H](CCCNC(=N)N)NC(=O)c1ccccc1)C(=O)N[C@@H](CC(N)=O)C(=O)N[C@@H](Cc1ccc(N)cc1)C(=O)N[C@H](C(=O)N[C@H](C(=O)N[C@@H](CCCNC(=N)N)C(=O)N[C@@H](CCC(N)=O)C(=O)N[C@@H](CCCNC(=N)N)C(=O)N[C@@H](CC1CCCCC1)C(N)=O)[C@@H](C)O)[C@@H](C)CC) [Benzoyl-[Cha27,36, Ile28,31, Phe(4NH2)30]-PYY(25-36)]
37 | 76 | Cyclohexanecarbonyl-RH[Cha]I[Asn(Me)]LITRQR[Cha]-NH2 (SMILES CC[C@H](C)[C@H](NC(=O)[C@H](CC1CCCCC1)NC(=O)[C@H](Cc1c[nH]cn1)NC(=O)[C@H](CCCNC(=N)N)NC(=O)C1CCCCC1)C(=O)N[C@@H](CC(=O)NC)C(=O)N[C@@H](CC(C)C)C(=O)N[C@H](C(=O)N[C@H](C(=O)N[C@@H](CCCNC(=N)N)C(=O)N[C@@H](CCC(N)=O)C(=O)N[C@@H](CCCNC(=N)N)C(=O)N[C@@H](CC1CCCCC1)C(N)=O)[C@@H](C)O)[C@@H](C)CC) [Cyclohexanecarbonyl-[Cha27,36, Ile28,31, Asn(Me)29]-PYY(25-36)]
26 | 51 | Isobutyryl-R[Abu][Cha][Cha]N[tBuAla][Aib]TRQR[Cha]-NH2 (SMILES CC[C@H](NC(=O)[C@H](CCCNC(=N)N)NC(=O)C(C)C)C(=O)N[C@@H](CC1CCCCC1)C(=O)N[C@@H](CC1CCCCC1)C(=O)N[C@@H](CC(N)=O)C(=O)N[C@@H](CC(C)(C)C)C(=O)NC(C)(C)C(=O)N[C@H](C(=O)N[C@@H](CCCNC(=N)N)C(=O)N[C@@H](CCC(N)=O)C(=O)N[C@@H](CCCNC(=N)N)C(=O)N[C@@H](CC1CCCCC1)C(N)=O)[C@@H](C)O) [Isobutanoyl-[Abu26, Cha27,28,36, Leu(Me)30, Aib31]-PYY(25-36)]
19 | 25 | Isobutyryl-R[Abu][Cha][Cha]NL[3Pal]TRQR[Cha]-NH2 (SMILES CC[C@H](NC(=O)[C@H](CCCNC(=N)N)NC(=O)C(C)C)C(=O)N[C@@H](CC1CCCCC1)C(=O)N[C@@H](CC1CCCCC1)C(=O)N[C@@H](CC(N)=O)C(=O)N[C@@H](CC(C)C)C(=O)N[C@@H](Cc1cccnc1)C(=O)N[C@H](C(=O)N[C@@H](CCCNC(=N)N)C(=O)N[C@@H](CCC(N)=O)C(=O)N[C@@H](CCCNC(=N)N)C(=O)N[C@@H](CC1CCCCC1)C(N)=O)[C@@H](C)O) [Isobutanoyl-[Abu26, Cha27,28,36, Pya(3)31]-PYY(25-36)]
20 | 23 | Isobutyryl-R[Abu][Cha][Phe(4-F)]NL[Aib]TRQR[Cha]-NH2 (SMILES CC[C@H](NC(=O)[C@H](CCCNC(=N)N)NC(=O)C(C)C)C(=O)N[C@@H](CC1CCCCC1)C(=O)N[C@@H](Cc1ccc(F)cc1)C(=O)N[C@@H](CC(N)=O)C(=O)N[C@@H](CC(C)C)C(=O)NC(C)(C)C(=O)N[C@H](C(=O)N[C@@H](CCCNC(=N)N)C(=O)N[C@@H](CCC(N)=O)C(=O)N[C@@H](CCCNC(=N)N)C(=O)N[C@@H](CC1CCCCC1)C(N)=O)[C@@H](C)O) [Isobutanoyl-[Abu26, Cha27,36, Phe(4F)28, Aib31]-PYY(25-36)]
33 | 50 | Cyclohexanecarbonyl-R[Nle][Cha][Cha]NL[Aib]TRQR[Cha]-NH2 (SMILES CCCC[C@H](NC(=O)[C@H](CCCNC(=N)N)NC(=O)C1CCCCC1)C(=O)N[C@@H](CC1CCCCC1)C(=O)N[C@@H](CC1CCCCC1)C(=O)N[C@@H](CC(N)=O)C(=O)N[C@@H](CC(C)C)C(=O)NC(C)(C)C(=O)N[C@H](C(=O)N[C@@H](CCCNC(=N)N)C(=O)N[C@@H](CCC(N)=O)C(=O)N[C@@H](CCCNC(=N)N)C(=O)N[C@@H](CC1CCCCC1)C(N)=O)[C@@H](C)O) [Cyclohexanecarbonyl-[Nle26, Cha27,28,36, Aib31]-PYY(25-36)]
5.4 | 5 | Bz-RH[Cha]INL[Phe(4-NH2)]TRQR[Cha]-NH2 (SMILES CC[C@H](C)[C@H](NC(=O)[C@H](CC1CCCCC1)NC(=O)[C@H](Cc1c[nH]cn1)NC(=O)[C@H](CCCNC(=N)N)NC(=O)c1ccccc1)C(=O)N[C@@H](CC(N)=O)C(=O)N[C@@H](CC(C)C)C(=O)N[C@@H](Cc1ccc(N)cc1)C(=O)N[C@H](C(=O)N[C@@H](CCCNC(=N)N)C(=O)N[C@@H](CCC(N)=O)C(=O)N[C@@H](CCCNC(=N)N)C(=O)N[C@@H](CC1CCCCC1)C(N)=O)[C@@H](C)O) [Benzoyl-[Cha27,36, Ile28, Phe(4NH2)31]-PYY(25-36)]
18 | 28 | Bz-RH[Cha][Cha]NL[Aib]TRQR[Cha]-NH2 (SMILES CC(C)C[C@H](NC(=O)[C@H](CC(N)=O)NC(=O)[C@H](CC1CCCCC1)NC(=O)[C@H](CC1CCCCC1)NC(=O)[C@H](Cc1c[nH]cn1)NC(=O)[C@H](CCCNC(=N)N)NC(=O)c1ccccc1)C(=O)NC(C)(C)C(=O)N[C@H](C(=O)N[C@@H](CCCNC(=N)N)C(=O)N[C@@H](CCC(N)=O)C(=O)N[C@@H](CCCNC(=N)N)C(=O)N[C@@H](CC1CCCCC1)C(N)=O)[C@@H](C)O) [Benzoyl-[Cha27,28,36, Aib31]-PYY(25-36)]
15 | 18 | Bz-RH[Cha]INL[Arg(Me)]TRQR[Cha]-NH2 (SMILES CC[C@H](C)[C@H](NC(=O)[C@H](CC1CCCCC1)NC(=O)[C@H](Cc1c[nH]cn1)NC(=O)[C@H](CCCNC(=N)N)NC(=O)c1ccccc1)C(=O)N[C@@H](CC(N)=O)C(=O)N[C@@H](CC(C)C)C(=O)N[C@@H](CCCNC(=N)NC)C(=O)N[C@H](C(=O)N[C@@H](CCCNC(=N)N)C(=O)N[C@@H](CCC(N)=O)C(=O)N[C@@H](CCCNC(=N)N)C(=O)N[C@@H](CC1CCCCC1)C(N)=O)[C@@H](C)O) [Benzoyl-[Cha27,36, Ile28, Arg(Me)31]-PYY(25-36)]
4.5 | 7.2 | {4‑guanidinomethylbenzoyl}-[Nle]H[Cha][Cha]NR[Cha]TRQR[Cha]-NH2 (SMILES CCCC[C@H](NC(=O)c1ccc(CNC(=N)N)cc1)C(=O)N[C@@H](Cc1c[nH]cn1)C(=O)N[C@@H](CC1CCCCC1)C(=O)N[C@@H](CC1CCCCC1)C(=O)N[C@@H](CC(N)=O)C(=O)N[C@@H](CCCNC(=N)N)C(=O)N[C@@H](CC1CCCCC1)C(=O)N[C@H](C(=O)N[C@@H](CCCNC(=N)N)C(=O)N[C@@H](CCC(N)=O)C(=O)N[C@@H](CCCNC(=N)N)C(=O)N[C@@H](CC1CCCCC1)C(N)=O)[C@@H](C)O) [4-Guanidinomethylbenzoyl-[Nle25, Cha27,28,31,36, Arg30]-PYY(25-36)]
